Reference: patent US20160052997A1 (CELLTRION, published 2016)
Changes are numbered by the printed parent chain. Values joined by “and” are separate entries in the source; they are usually repeats but may differ in a detail not shown here. Identical values can stand only once. Like-named read-outs stand apart in the source and are kept apart here.

Columns and labels:
[1] = biological target: T1, HA of A/Solomon Islands/2006 (H1N1) virus (Influenza A virus A/Solomon …); assay: cell-based or functional assay
[2] = biological target: T2, HA of A/Brisbane/10/07 (H3N2) virus (Influenza A virus A/Brisbane/10/07 …); assay: cell-based or functional assay
[3] = biological target: T3, HA of A/Ann Arbor/6/60 ca (H2N2) virus (Influenza A virus A/Ann Arbor/6/60 ca …); assay: cell-based or functional assay
[4] = biological target: T4, HA of A/Texas/05/2009 (H1N1) virus (Influenza A virus A/Texas/05/2009 (H1N1)); assay: cell-based or functional assay
[5] = biological target: T5, HA of Anhui/1/05 (H5N1) virus (Influenza A virus A/Anhui/1/05 (H5N1)); assay: cell-based or functional assay
[6] = biological target: HA of A/turkeyNirginia/02 (H7N2) virus (Influenza A virus A/turkey/Virginia/02 …); assay: cell-based or functional assay
[7] = biological target: T6, HA of A/Wisconsin/67/05 (H3N2) virus (Influenza A virus A/Wisconsin/67/05 …); assay: cell-based or functional assay
[8] = biological target: HA of A/Green-winged teal/209/TX/2009 (H9N2) virus (Influenza A virus A/Green-winged …); assay: cell-based or functional assay
[9] = biological target: T7, HA of A/New York/18/2009 (H1N1) virus (Influenza A virus A/New York/18/2009 …); assay: cell-based or functional assay
[10] = biological target: T8, HA of A/Ohio/07/2009 (H1N1) virus (Influenza A virus A/Ohio/07/2009 (H1N1)); assay: cell-based or functional assay
[11] = biological target: T9, HA of A/Ohio/83 (H1N1) virus (Influenza A virus A/Ohio/83 (H1N1)); assay: cell-based or functional assay
[12] = biological target: T10, HA of A/ck/HK/G9/97 (H9N2) virus (Influenza A virus A/ck/HK/G9/97 (H9N2)); assay: cell-based or functional assay
[13] = biological target: T1, HA of A/Solomon Islands/2006 (H1N1) …; assay: cell-based or functional assay; remark: listed apart in the source
[14] = biological target: T4, HA of A/Texas/05/2009 (H1N1) virus; assay: cell-based or functional assay; remark: listed apart in the source
[15] = biological target: T7, HA of A/New York/18/2009 (H1N1) virus; assay: cell-based or functional assay; remark: listed apart in the source
[16] = biological target: T9, HA of A/Ohio/83 (H1N1) virus; assay: cell-based or functional assay; remark: listed apart in the source
[17] = biological target: T11, purified recombinant HA protein of H1N1 (A/Solomon Island/03/06) (Influenza A virus A/Solomon …)
[18] = biological target: T1, HA of A/Solomon Islands/2006 (H1N1) …; assay: cell-based or functional assay; remark: listed apart in the source
[19] = biological target: T3, HA of A/Ann Arbor/6/60 ca (H2N2) virus; assay: cell-based or functional assay; remark: listed apart in the source
[20] = biological target: T4, HA of A/Texas/05/2009 (H1N1) virus; assay: cell-based or functional assay; remark: listed apart in the source
[21] = biological target: T5, HA of Anhui/1/05 (H5N1) virus; assay: cell-based or functional assay; remark: listed apart in the source
[22] = biological target: HA of A/PuertoRico/8/34 (H1N1) virus (Influenza A virus A/PuertoRico/8/34 …, UniProt P03452 18-565); assay: cell-based or functional assay
[23] = biological target: T8, HA of A/Ohio/07/2009 (H1N1) virus; assay: cell-based or functional assay; remark: listed apart in the source
[24] = biological target: T9, HA of A/Ohio/83 (H1N1) virus; assay: cell-based or functional assay; remark: listed apart in the source
[25] = biological target: T10, HA of A/ck/HK/G9/97 (H9N2) virus; assay: cell-based or functional assay; remark: listed apart in the source
[26] = biological target: T11, purified recombinant HA protein of H1N1 …; assay: SPR, Biacore T200, HA captured via anti-6x his tag antibody, 25 C
[27] = biological target: T12, HA of A/Hong Kong/68 (H3N2) virus (Influenza A virus A/Hong Kong/68 (H3N2)); assay: cell-based or functional assay
[28] = biological target: T12, HA of A/Hong Kong/68 (H3N2) virus; assay: cell-based or functional assay; remark: listed apart in the source
[29] = biological target: T2, HA of A/Brisbane/10/07 (H3N2) virus; assay: cell-based or functional assay; remark: listed apart in the source
[30] = biological target: T6, HA of A/Wisconsin/67/05 (H3N2) virus; assay: cell-based or functional assay; remark: listed apart in the source
[31] = biological target: HA of A/Anhui/1/2013 (H7N9) virus (Influenza A virus A/Anhui/1/2013 (H7N9)); assay: cell-based or functional assay
[32] = biological target: HA of A/Sydney/5/97 (H3N2) virus (Influenza A virus A/Sydney/5/97 (H3N2)); assay: cell-based or functional assay
[33] = biological target: HA of A/Beijing/32/92-R-H3N2 PR8 virus (Influenza A virus A/Beijing/32/92 (H3N2)); assay: cell-based or functional assay
[34] = biological target: HA of A/Perth/16/09 (H3N2) virus (Influenza A virus A/Perth/16/09 (H3N2)); assay: cell-based or functional assay
[35] = biological target: HA of A/Shanghai/2/2013 (H7N9) virus (Influenza A virus A/Shanghai/2/2013 …); assay: cell-based or functional assay

B1: CT120 (antibody, V domains shown)
VH: QVQLVQSGAEVKMPGSSVKVSCKTSGVFFSSHAISWVRQAPGQGLEWMGGISPMFGTTHYAQKFQGRVTITADQSTTTAYMELTSLTSEDTAVYYCARDGAGSYYPLNWFDPWGQGTLVTVSS
VL: EIVLTQSPATLSLSPGERATLSCRASENIWNNLAWYQQKPGQAPRLLISGASTGATGVPSRFRGSGSRTEFTLTISSLQSEDFAIYFCQQYNSWPRTFGPGTKVEIKR
- MN test: lowest antibody concentration at which no virus antigen was detected [1]: 0.625 µg/mL
- MN test: lowest antibody concentration at which no virus antigen was detected [2]: > 20 µg/mL
- MN test: lowest antibody concentration at which no virus antigen was detected [3]: 0.312 µg/mL
- MN test: lowest antibody concentration at which no virus antigen was detected [4]: 0.156 µg/mL
- MN test: lowest antibody concentration at which no virus antigen was detected [5]: 0.625 µg/mL
- MN test: lowest antibody concentration at which no virus antigen was detected [6]: > 20 µg/mL
- MN test: lowest antibody concentration at which no virus antigen was detected [7]: > 10 µg/mL
- MN test: lowest antibody concentration at which no virus antigen was detected [8]: 0.625 µg/mL
- MN test: lowest antibody concentration at which no virus antigen was detected [9]: 0.313 µg/mL
- MN test: lowest antibody concentration at which no virus antigen was detected [10]: 0.039 µg/mL
- MN test: lowest antibody concentration at which no virus antigen was detected [11]: 0.156 µg/mL
- MN test: lowest antibody concentration at which no virus antigen was detected [12]: 0.078 µg/mL
- MN test: lowest antibody concentration at which no virus antigen was detected [13]: 0.625 µg/mL
- MN test: lowest antibody concentration at which no virus antigen was detected [14]: 0.313 µg/mL
- MN test: lowest antibody concentration at which no virus antigen was detected [15]: 0.313 µg/mL
- MN test: lowest antibody concentration at which no virus antigen was detected [16]: 0.156 µg/mL
- Kd [17]: 2.82 nM
- EC50, microneutralization test [18]: 0.25 µg/mL
- EC50, microneutralization test [19]: 6.53 µg/mL
- EC50, microneutralization test [20]: 1.19 µg/mL
- EC50, microneutralization test [21]: 6.92 µg/mL
- EC50, microneutralization test [22]: 0.33 µg/mL
- EC50, microneutralization test [23]: 0.14 µg/mL
- EC50, microneutralization test [24]: 0.26 µg/mL
- EC50, microneutralization test [25]: 3.12 µg/mL
- Kd [26]: 2.79 nM and 2.85 nM
- koff [26]: 0.000684 s⁻¹ and 0.000703 s⁻¹
- kon [26]: 245000 M⁻¹ s⁻¹ and 246000 M⁻¹ s⁻¹

B2: CT104 (antibody, V domains shown)
VH: QVQLVQSGAEVKKPGSSVKVSCKASGGTLNNYAISWVRQAPGQGLEWMGGISPIFGTLNYAERFQGRVTITADVFTNTVYMELSSLRSEDTAVYFCARGCGYNCYYFDGWGQGTLVTVSS
VL: EIVLTQSPGTLSLSPGERATLSCRASQSLSSSSLVWYQQKPGQAPRLLIYGASSRATGIPDRFSGSGSGTDFTLTISRLEPEDFAVYYCQQYGNSPYTFGQGTQVEIKR
- MN test: lowest antibody concentration at which no virus antigen was detected [13]: 0.625 µg/mL
- MN test: lowest antibody concentration at which no virus antigen was detected [14]: 0.313 µg/mL
- MN test: lowest antibody concentration at which no virus antigen was detected [15]: 0.625 µg/mL
- MN test: lowest antibody concentration at which no virus antigen was detected [16]: 0.313 µg/mL

B3: CT123 (antibody, V domains shown)
VH: QVQLVESGGGVVQPGRSLRLSCAASGFTFSRFGIHWVRQAPGKGLEWMAVIWYDGSNKFYADSVKGRFTISRDNSKNTVYLQMNSLRAEDTAVYYCAKDSRGYCSSIICFEGGLDNWGQGTLVTVSS
VL: B2 VL with I2T, L29V, S31I, S33Y, V35A, Q39R, S54R, N94S, Q104K, V105L
- MN test: lowest antibody concentration at which no virus antigen was detected [13]: 1.25 µg/mL
- MN test: lowest antibody concentration at which no virus antigen was detected [14]: 0.313 µg/mL
- MN test: lowest antibody concentration at which no virus antigen was detected [15]: 0.625 µg/mL
- MN test: lowest antibody concentration at which no virus antigen was detected [16]: 0.313 µg/mL

B4: CT149 (antibody, V domains shown)
VH: QVQLVQSGAEVKKPGASVKVSCKTSGYSFSTYGVSWVRQAPGQGPEWVGWISAYTGITDYAQKFQGRVTLTTDATTATAFLDLRSLRPDDTATYFCARDKVQGRVEVGSGGRHDYWGQGTLVIVSS
VL: EVVLTQSPGTLALPPGERATLSCRASHRVGSTYIAWYQQKSGQAPRRLIYGASNRATDIPDRFSGSGSGTDFTLTIRRLEPEDSAVYYCQQFSVSPWTFGQGTRVEIKR
- MN test: lowest antibody concentration at which no virus antigen was detected [1]: > 10 µg/mL
- MN test: lowest antibody concentration at which no virus antigen was detected [27]: 2.5 µg/mL
- MN test: lowest antibody concentration at which no virus antigen was detected [2]: 1.25 µg/mL
- MN test: lowest antibody concentration at which no virus antigen was detected [3]: > 10 µg/mL
- MN test: lowest antibody concentration at which no virus antigen was detected [4]: > 10 µg/mL
- MN test: lowest antibody concentration at which no virus antigen was detected [5]: 0.625 µg/mL
- MN test: lowest antibody concentration at which no virus antigen was detected [6]: 10 µg/mL
- MN test: lowest antibody concentration at which no virus antigen was detected [7]: 1.25 µg/mL
- MN test: lowest antibody concentration at which no virus antigen was detected [8]: 0.156 µg/mL
- MN test: lowest antibody concentration at which no virus antigen was detected [9]: > 10 µg/mL
- MN test: lowest antibody concentration at which no virus antigen was detected [10]: 5 µg/mL
- MN test: lowest antibody concentration at which no virus antigen was detected [11]: > 10 µg/mL
- MN test: lowest antibody concentration at which no virus antigen was detected [12]: 0.312 µg/mL
- Kd [17]: 345 nM
- MN test: lowest antibody concentration at which no virus antigen was detected [28]: 2.5 µg/mL
- MN test: lowest antibody concentration at which no virus antigen was detected [29]: 1.25 µg/mL
- MN test: lowest antibody concentration at which no virus antigen was detected [30]: 1.25 µg/mL
- EC50, microneutralization test (Contract Lab A) [31]: 0.9 µg/mL
- EC50, microneutralization test [32]: 2.93 µg/mL
- EC50, microneutralization test [33]: 1.36 µg/mL
- EC50, microneutralization test [34]: 2.06 µg/mL
- EC50, microneutralization test [21]: 11 µg/mL
- EC50, microneutralization test (Contract Lab A) [35]: 1.17 µg/mL
- EC50, microneutralization test (Contract Lab B) [35]: 7.71 µg/mL
- EC50, microneutralization test [25]: 7.39 µg/mL
- Kd [26]: 368 nM and 323 nM
- koff [26]: 0.0904 s⁻¹ and 0.105 s⁻¹
- kon [26]: 246000 M⁻¹ s⁻¹ and 324000 M⁻¹ s⁻¹
